Laboratory results taken from patent US20230257722.

Tests used:
Assay in all cases: cell_activity
[1] = tested on: TL4412 SMARCA4 right TALE-SEQ6 nuclease (synthetic); settings: A549, mRNA, pair with p6L; Table 10 75.2% cleavage
[2] = tested on: TL4412 SMARCA4 right TALE-SEQ7 nuclease (synthetic); settings: A549, mRNA, pair with p7L; no cleavage, binding not measured
[3] = tested on: TL4412 SMARCA4 right TALE-SEQ4 nuclease (synthetic); settings: A549, mRNA, pair with p4L; Table 10 94.5% cleavage
[4] = tested on: TL4412 SMARCA4 right TALE-SEQ8 nuclease (synthetic); settings: A549, mRNA, pair with p8L; Table 10 70.4% cleavage
[5] = tested on: TL4412 SMARCA4 right TALE-SEQ2 nuclease (synthetic); settings: A549, mRNA, pair with p2L; Table 10 67.6% cleavage
[6] = tested on: TL4412 SMARCA4 right TALE-SEQ5 nuclease (synthetic); settings: A549, mRNA, pair with p5L; no cleavage, binding not measured
[7] = tested on: TL4412 SMARCA4 right TALE-FokI (synthetic); settings: A549, mRNA, pair with pFL
[8] = tested on: TL4412 SMARCA4 right TALE-SEQ1 nuclease (synthetic); settings: A549, mRNA, pair with p1L; Table 10 59.7% cleavage
[9] = tested on: TL4409 SMARCA4 left TALE-SEQ7 nuclease (synthetic); settings: A549, mRNA, pair with p7R; no cleavage, binding not measured
[10] = tested on: TL4409 SMARCA4 left TALE-SEQ1 nuclease (synthetic); settings: A549, mRNA, pair with p1R; Table 10 59.7% cleavage
[11] = tested on: TL4409 SMARCA4 left TALE-SEQ5 nuclease (synthetic); settings: A549, mRNA, pair with p5R; no cleavage, binding not measured
[12] = tested on: TL4409 SMARCA4 left TALE-SEQ8 nuclease (synthetic); settings: A549, mRNA, pair with p8R; Table 10 70.4% cleavage
[13] = tested on: TL4409 SMARCA4 left TALE-SEQ4 nuclease (synthetic); settings: A549, mRNA, pair with p4R; Table 10 94.5% cleavage
[14] = tested on: TL4409 SMARCA4 left TALE-FokI (synthetic); settings: A549, mRNA, pair with pFR
[15] = tested on: TL4409 SMARCA4 left TALE-SEQ2 nuclease (synthetic); settings: A549, mRNA, pair with p2R; Table 10 67.6% cleavage
[16] = tested on: TL4409 SMARCA4 left TALE-SEQ6 nuclease (synthetic); settings: A549, mRNA, pair with p6R; Table 10 75.2% cleavage

Sequence | activity [1] [% indels] | activity [2] [% indels] | activity [3] [% indels] | activity [4] [% indels] | activity [5] [% indels] | activity [6] [% indels] | activity [7] [% indels] | activity [8] [% indels] | activity [9] [% indels] | activity [10] [% indels] | activity [11] [% indels] | activity [12] [% indels] | activity [13] [% indels] | activity [14] [% indels] | activity [15] [% indels] | activity [16] [% indels]
ACTGAGAGAGTGGACAAGC (double strand) [SMARCA4 right half-site (top strand)] | 1 | 0 | 87 | 38 | 8 | 0 | 74 | 42 | – | – | – | – | – | – | – | –
GGCGTGTCCCAGGCCCTTGC (double strand) [SMARCA4 left half-site] | – | – | – | – | – | – | – | – | 0 | 42 | 0 | 38 | 87 | 74 | 8 | 1
